Paper PMC7082075
“And” between values parts separate entries of the source, which are not always exact repeats. Identical values can stand only once. One block for each binder: values may come before it.

Tests used:
[1] = biological target: SNX3-retromer complex (retromer VPS35/VPS26/VPS29 with SNX3), Q96QK1; assay: ITC; Fig 1E: approximately 2–3 mM of peptides titrated into the SNX3-retromer complex (10 μM Retromer + 100 μM SNX3); 100 mM HEPES pH 7.5, 300 mM NaCl, 2 mM βME, 25°C; one set of sites model; single values of triplicates
[2] = biological target: SNX3-retromer complex (Retromer + SNX3), Q96QK1; assay: ITC; approximately 2–3 mM peptide titrated into SNX5^PX (300 μM) or the SNX3-retromer complex (10 μM Retromer + 100 μM SNX3); 100 mM HEPES pH 7.5, 300 mM NaCl, 2 mM βME, 25°C; one set of sites model (Fig 1D, 1E, 2B)

Kd [1]: 100 µM and 113 µM and 117 µM
B1: DMT1-II peptide (divalent metal transporter 1) (peptide)
chain: AQPELYLLNTMDADSLVSR
modifications: not checked

Kd [2]: 110 µM
B2: DMT1-II peptide (peptide)
chain: AQPELYLLNTMDADSLVSR
modifications: not checked
